Reference: patent US20260035452A1, “NOVEL INTERLEUKIN-17A (IL-17A)-DERIVED PEPTIDE AND NEUTRALIZING ANTIBODY (AB17-IPL-1)” (THE UNIVERSITY OF BIRMINGHAM, priority 2022, published 2026)

Molecular target: IL-17 (used on human synovial fibroblasts, Example 9)
Assay: cell-based or functional assay

## MAB421 (antibody)
  IL-6 production by human RA fibroblasts stimulated with IL-17 (10 ng/ml) and TNF-α (100 U/ml); 3662.05 µg/ml without antibody; antibody at 10 µg/ml: 2320 µg/mL
